Assay results reported in patent US20020082235A1.

target: Hoxc-8 (in the transfected C3H10T1/2 and 2T3 cells); assay: cell-based or functional assay

osteopontin promoter activity (OPN-266 luciferase reporter, C3H10T1/2 cells)	Substance
3 to 5 fold	Smad1-L (aa 145-276) fused with a nuclear localization signal
3 to 5 fold	Smad1-M (101-191) fused with a nuclear localization signal
3 to 5 fold	Smad1-NL (amino acids 3-276) fused with a nuclear localization signal
